According to FireProtDB (doi:10.1016/0022-2836(92)90906-z):

B1: Ribonuclease, P00648 (parent)
chain: MMKMEGIALKKRLSWISVCLLVLVSAAGMLFSTAAKTETSSHKAHTEAQVINTFDGVADYLQTYHKLPDNYITKSEAQALGWVASKGNLADVAPGKSIGGDIFSNREGKLPGKSGRTWREADINYTSGFRNSDRILYSSDWLIYKTTDHYQTFTKIR

Variants of: B1
Conditions: Bacillus amyloliquefaciens; pH 6.3; 25 °C; Urea; Fluorescence; MES 1.00 M; NaCl 613 mM; reversible: yes; structure 1BNI; whole UniProt chain shown

Variant | ddG of mutation (higher = less stable) [kcal/mol] | denaturant m value [kcal/mol/M] | denaturant midpoint (higher = more stable) [M] | unfolding free energy [kcal/mol]
E76A | 1.2 | 1.94 | 3.93 | 7.6
E76S | 1.2 | 1.93 | 3.94 | 7.6
E76G | 2.2 | 1.81 | 3.64 | 6.6
H65S W141L | 2.8 | 1.86 | 3.24 | 6
G81H | 2.3 | 2.02 | 3.21 | 6.5
G81A | 2.7 | 2.06 | 2.97 | 6.1
G81N | 2.7 | 1.94 | 3.16 | 6.1
G81D | 3.2 | 1.99 | 2.83 | 5.6
G81S | 2.9 | 2.03 | 2.93 | 5.9
G81T | 3.2 | 1.96 | 2.84 | 5.6
G81K | 2.7 | 2.06 | 2.97 | 6.1
T73D | 0 | 1.95 | 4.53 | 8.8
T63A | 0.5 | 1.88 | 4.43 | 8.3
H65D | 2.2 | 2.04 | 3.26 | 6.6
H65R | 1 | 1.97 | 3.97 | 7.8
H65A | 1.9 | 1.91 | 3.62 | 6.9
H65K | 0.9 | 1.99 | 3.96 | 7.9
H65N | 1.8 | 1.89 | 3.71 | 7

Variant | ddG of mutation (higher = less stable) [kcal/mol] | denaturant m value [kcal/mol/M] | denaturant midpoint (higher = more stable) [M] | unfolding free energy [kcal/mol]
H65S | 2.1 | 1.96 | 3.4 | 6.7
H65G | 0.7 | 1.91 | 4.21 | 8.1
D59G | 0.2 | 1.87 | 3.97 | 8.6
D59S | 0.9 | 1.85 | 4.29 | 7.9
D55G | 1.3 | 1.89 | 3.97 | 7.5
D55S | 0.7 | 1.99 | 4.07 | 8.1
S75A | -0.6 | 1.98 | 4.78 | 9.4
S75G | 0.5 | 1.88 | 4.34 | 8.3
Y64G | 4 | 1.91 | 2.5 | 4.8
Y64S | 2 | 2.08 | 3.25 | 6.8
H65R W141L | 1.6 | 2.06 | 3.48 | 7.2
H65A W141L | 2.3 | 1.94 | 3.36 | 6.5
K74G | -0.2 | 2.11 | 4.29 | 9
H65K W141L | 2.7 | 1.8 | 3.37 | 6.1
T53P | 3.3 | 1.83 | 2.99 | 5.5
Q78A | 0.3 | 1.83 | 4.62 | 8.5
Q78G | 1.1 | 1.89 | 4.07 | 7.7
Q78S | -0.3 | 2.05 | 4.44 | 9.1
